Laboratory results taken from patent US12247062 (1GLOBE BIOMEDICAL, dated 2025).

Target: T1, rituximab (RITUXAN), coated on CD20+ Daudi cells
T1 construct: also called MABTHERA; ZYTUX
Assay: flow cytometry titrations compared: rituximab-coated Daudi cells against Jurkat cells (CD3)
Text: Figure 12: FIG. 12 schematically depicts an assay using Daudi cells to test the ability of an Adapter-like ADCC Enhancer of the present invention to bind CD20+ target cells coated with RITUXAN (rituximab). Figure 13: FIG. 13 illustrates FACS data showing, in an assay according to FIG. 12, the binding between Daudi cells and the ADCC Enhancer of the invention before purification ("Sample Load") and after purification ("Purified Protein"). Figure 14: FIG. 14 illustrates FACS data showing titration of binding between Daudi cells and the ADCC Enhancer of the invention at various concentrations. The volume of the Enhancer in microliters are indicated in the upper right corner of the top six diagrams as: 50, 25, 12.5, 6.25, 3.13 and 1.56 microliters. The bottom diagram summarizes the data. CD20+ Daudi cells were coated with RITUXAN (rituximab) (anti-CD20 antibody) and excess RITUXAN (rituximab) was removed by washing the cells with PBS. RITUXAN (rituximab)-coated cells were incubated with various amounts of the Enhancer, and excess Enhancer was removed by washing the cells in PBS. Bound Enhancer proteins were detected using fluorescent anti-human CD64 antibody.
With tagged protein, binding affinity can also be detected using a fluorescently tagged anti-tag antibody. This approach can also be used to detect binding of the CD64 domain by rituximab-coated CD20⁺ Daudi cells (see FIG. 12). […]

B1: CD64-dhOKT3 fusion protein (Adapter-like ADCC Enhancer) (other)
chain: QVDTTKAVITLQPPWVSVFQEETVTLHCEVLHLPGSSSTQWFLNGTATQTSTPSYRITSASVNDSGEYRCQRGLSGRSDPIQLEIHRGWLLLQVSSRVFTEGEPLALRCHAWKDKLVYNVLYYRNGKAFKFFHWNSNLTILKTNISHNGTYHCSGMGKHRYTSAGISVTVKELFPAPVLNASVTSPLLEGNLVTLSCETKLLLQRPGLQLYFSFYMGSKTLRGRNTSSEYQILTARREDSGLYWCEAATEDGNVLKRSPELELQVLSSGGGGSQVQLVQSGGGVVQPGRSLRLSCKSSGYTFTRYTMHWVRQAPGKGLEWIGYINPSRGYTNYNQKVKDRFTISRDNSKNTAFLQMDSLRPEDTGVYFCARYYDDHYCLDYWGQGTPVTVSSVEGGSGGSGGSGGSGGVDDIQMTQSPSSLSASVGDRVTITCRASSSVSYMNWYQQTPGKAPKRWIYDTSKVASGVPSRFSGSGSGTDYTFTISSLQPEDIATYYCQQWSSNPLTFGQGTKLQIT
notes: Expressed in Expi293 cells and used as culture supernatant or after IgG Sepharose purification; Untagged; also called Soluble Universal ADCC Enhancer Protein; SUAEP
- fold stronger Fc- or antibody-binding than CD3-binding: ~30 fold
